According to the domain aggregation screens of Martell et al. (2025):

Assay: soluble fraction after stress (log2 fold change); higher = more stays soluble; pooled small domains, quantitative proteomics
Details: stress: 50 degC
Method in brief: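 The stress applied to every library was 50°C. These custom libraries of small protein domains were pooled and measured at high throughput with quantitative proteomics as the read-out. Aggregation propensity is expressed as the base-two logarithm of the fold change in how much of each protein remains soluble. The higher the value, the more of that protein stays in solution.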

Row | Sequence | soluble fraction (log2)
1 | HMPTMEQTYIGRTMIAEEDMGKNSKIKVSGIYWTAYNKGRVIKKGEEYKITGIEGNKLIVSSK | -0.0359
2 | HMGEVVSAPMPGTILSIKVSQGQTVKRGQVLLILEAMKMENEIVAPRDGVVVQISTTQGASVETGAPLVVL | -0.0677
3 | HMSEPTVVAINETLTSERLDRYLTTQLPHISRGGIQRLLRKGNILVDGKPAKPTQHPVAGQTVEITWPIPK | -0.359
4 | HMNKQEFLNTLRIIFKKANVLDVESIIDVYEEHFAVGYEKGLNDEQIIKSLGTPKEIYTSYVEAGI | -0.615
5 | HMADAGQTTAATELKQAPNAGSATISQLSAGQTLQIGTRQGAWYQVKTPQGEGWVRMLSVRLQ | 0.0186
6 | HMTIDANAIEKMVLDLIGEHPNEWGRYRDGDKKVQGFFVGQIMKATSGQADGKIVNQILSQHAEA | -0.115
7 | HMLKEGQYSPNHFHWHKMEDIINRGGGTLLIRVYNSLPDEEIDRESDVTVHMDGVTRTVPAGTQLRLE | -0.229
8 | HMLEASVYTAEKSGDRLDAFLAEQAGITRSYAQKLIEGGQVTLGGVVPKKNYKLSAGEQVELILPEN | 0.0254
9 | HMSSSYVYGGNGEIVILSDVSKHLNVYNLNGQKVTDVNLTAGELQRISIATGIYVVGGKKIVV | -2.92
10 | HMQKTIDWSQVDKEQYLSAMERSPVNDLEIKAILAKALTSDINNRELFMKGLDHSYYFEGYQLFKSE | -0.281
11 | HMNQRTATVTASQLNVRSGPSTAYSIVHVLRQGETVEVIGESDGWYQIRLKDGRVGWSSGQYLNLN | 0.0784
12 | HMAHETIDVAALRVGMFVQLDLGWLSHPFPLSSFRISSEDQIATIRALGLKRVRWSSEQSDS | -4.29
13 | HMSDDLLTGLDAYSRGDWTTATASFERVLTTADPNNRTEALYWLVMSETSAQNYQRALNYANTFL | -0.688
14 | HMIINLGELLKMLEVNKYQDAMDALDSLIEEGGSLEKIESLHEIRQHTHAMNFREAERLLSILIESEGA | -0.746
15 | HMDILPEGNYKVNYDVIDEVGNIVANKNDIVVTEKSIKPLNTILGIDLYEVIHSQTGKYFTINGDNLTN | -0.00162
16 | HMQAKQVAIPDVANYSVTDAIKKLQDAGFIVSDEQREEANETVSEGKVSRTSPAAGSIRKEGTEIILYKSL | 0.198
17 | HMEITRDTVIQWLEAERRSQTWLSKQLGVSVQAVSNWLREKNPQTISASAQITIRALMEEDAAK | -0.42
18 | HMSERVVEIDPSQLRPGLFIRLPSGWMNHPFLFNQFRINSAEQVEIIQKLGLKTVQYLPERSSTQALPRA | -0.499
19 | HMRDKSITFSEFVKLLDEGQIQKVTLTGNEILGTQKSGDKFRTYAPPQYEGLGNKLVERSVEVTAKE | 0.207
20 | HMQTSETVYTTDKVNVRAGADTSSDKLGSVEKGTSLTRTGTDGDWSIIDYNGTTGYIKSEYLSATAPE | 0.133
21 | HMNSLPFSNFMNEVEAGRVVEVKIQGNNISGVLANGKTFSTYSPNYPELVEKLSSNGVSIVATPQ | 0.153
22 | HMDDENKIEVMINEEKVQLTGKDKYVFVDIFNYIDMDLTRIHGNLVLKLNGENASHNSLLKSGDKIEARWE | -0.181
23 | HMRTPTGVQAYLSSGLIKGIGEKTAAAIVDKFGTDALSVIETDPERLLEIPGITPNKLREILESYNQH | 0.141
24 | HMSAQDLIVKTDATQVEARVLEISPEQIRYKRFSNPDGPTYVLPVDAVDYIRYANGETDSFR | -0.0039
25 | HMKHKGILTTWNDDRGFGFITPKEGKEPVFVHISAFARGQGRPVLNASLTYRLVRDDQQRPRAEAVRL | -1.15

Row | Sequence | soluble fraction (log2)
26 | HMSLDTASDKELLGLIVSEPIATRVLDAFRTLDATLFRTTPAELAAAAGVSSEHAQKIKAVAEIAARMLKP | -0.377
27 | HMEQYFEDEELNDKFLEFLAMRKRVRKPVQTDRGMKMLLTSLHKLSGGDVGLMKQIIDQSLDNEWKKFVA | -0.673
28 | HMSMRIDTNTLNYYVQNAQISLSVLRTKINNLDQFLSGEKQPTFNQLSEIAKKINVPTGLLLLNKS | -1.45
29 | HMRFDADELQKAYDLFDADENTPFKTIKQAYYALARRHHPDKNGDQEYFKVINNAFQLIQEHRRRRDN | -0.246
30 | HMDRSQRDQEQAQLIRLVQQAFDDSGQRYGAEKIRITLAEGGIRVSTKRIAAIMQELDLRSI | -1.36
31 | HMKLEKKWIEAVEKYRRYVLSTGIKHVQKPIEFENFRLGQWYADVRQSYRRGTLSKEKLLEIREINPDFPN | -0.276
32 | HMEIGELITLYRKQAGLTIDELSEKANVPKGTLNKIIGGITKAPTLETMRSIAYALGKKLADFDN | -0.34
33 | HMDDVGERIRKIREEKNLSLDEISKMTGFDVEFLAKIENKERQPQLGTVIKLSKALDSAFGRL | 0.221
34 | HMLIPADETEAKVLSVLSREPLHVDEIRNQAGLPIEKISATLALMELKGMVRQVGGMNYVSV | 0.122
35 | HMSTNYVQVLRAALNGVSGRKLAQQYRVSRDTVAILLRQAKIQGWQRAEDLENITEEDLVALLSG | -0.373
36 | HMGKPTPASQVATRWLAGDLPETLPVAGPAPSFETLARSVSTDFHPRAVLQELLRLGVAEEADGRVRLLK | 0.00959
37 | HMSPAVSLITGKLGAETYYKQGLKKAKEKDYEGALDDLIKAYEFFPDKKIKTQVDKLASFLGKPPIL | 0.0669
38 | HMDEYTAVDSRLDLELAMKRLKPEEAEVLRLVFDYGLPQRAIAERLGVSQMSVSRMQRRAIGKLKRWLSDN | -1.08
39 | HMGAIVTVPDLAGRPQPGAEAELRRSGLVPKVRTSYSLTGTRGTVISQTPPAGSRVREGAEVEVVVSRGLN | 0.0922
40 | HMTIERVKIKETPTGWLRVRETPDNNGSEIGRANVGEIYELLGSKGEWYHIVYKGKQGFISTKYAEKVL | -0.22
41 | HMIADSSSIHQDAKQQLHSYLRTNIQPLMRAGKQLDLKDILHHVTIRKPKLVQQLGMKQVQHMVQVLLD | 0.224
42 | HMSKQQFLDELAARLREEGAELLVAENLNFYRSYIEEEVAKGRSEEEVLAELGNPALIARSILDAAGF | -0.153
43 | HMEFEYFQLRDHLYNLIMHPDKEKLKKDPDYLKLMSMAFSLLEDQNVGKDILEIAIKSIENFK | -0.573
44 | HMGIAFDYDAGRFDQVPPNLVEKWQQAYPAVDVLSELRRMEAWASANPVNRKSNWQRFIVNWLTRAQDRAG | -0.215
45 | HMTKTSQEDEDIMRHLDELHTRWPFLGQRKLIEELKDQGIQIGRKRLRRLMKVMGIEAIAPK | -1.29
46 | HMTEEPISDGIKKLVEEWENIEGNLIMIFHGIQKHYGYVPRNVAKYVSEAIDVPLTRIYEILTFYNYFTM | 0.142
47 | HMDYINALTTAGITDAKVIVTAPFDVSGTAALTGIYKAYEDITGSSLNEIAKAVGVEELITTGNLA | 0.0392
48 | HMRRRKPLVSYEYGTRVYAPSEGEPRYRVVATDADGQRVFAKFSSEEAARHRAREIEGRLATS | -0.00468
49 | HMSDPVKQVAMRILDLREISDYTVDKMAEVLNVPVEEYRKYESGEVDMPISFLVKIGEVFHVDMTELLTG | -0.219
50 | HMLANLNKELQNDAALLKQKAQGNSNLLAKIQDVEQQMKQVNTSSASDEAKAKELQTLQRKLTAYKKALA | 0.0101

Row | Sequence | soluble fraction (log2)
51 | HMENKTGEVTVREDSALTLRQGPGTNYEKVGQAYRGDRVDVLEEQNGWYKVKTYDGKEAWASSSYISIV | 0.454
52 | HMAPKVTLNETETAIFEKMQQEKQLLLSELRTHFDISNKLWDTSIKTLTKNQLLTVSKEADLLWIKL | -0.658
53 | HMYIEKTAYINDTAVNVRKSATTDSDVIKVLALNTEITIIGEENDWYKVKSGNDIGYIAKRLVSDQKKE | 0.0858
54 | HMHEYSRIYQQQWWDNATGADAYHVIHSARSRAAQDPEAARALEYLEEQFRIRYGVRTEDFLGYLHD | -0.411
55 | HMNPTSLTFRSNVKDGKVYVDGIFKGSSDLDFDLPKGRHSIRIEKDGYVPFAKTINLIKALVIDFNMEKA | -1.83
56 | HMYTPDYLSDLMVRMAHHSTAIEGNTLTQGETKSVLVDGYIPRAMDMRELNEVLNYKAFMTFLVE | -0.0969
57 | HMQDNDLKNQIENVLRTYPDNVFTVEKIADVLRSHGSAAFKLIVQELASLERDKVAVVTEDGKFQLNPD | 0.125
58 | HMNSEELFLRRIAQELIDQHGKDLHRIIVVLPSNRSKVFLKKFLFEILGSAFLTPQLMLLPQFVKSIV | -0.282
59 | HMSRELVILGNSMLNNALKAFHVSPASIKKKHWDKLILDYHLESKNNILIDIALGKRINVMVAHQLTSIID | 0.56
60 | HMHPEQTLEKIVDISAELFAKKGYEQTSIQDILDATGLSKGGLYHHFKSKEEILEAVMQKRVQY | 0.0883
61 | HMSLQNTMANFAGGVLVLFLKPFKAGDYIVTKDGEGTVASIGLVYTTLLTIENKRIVIPNSSISNSPITN | 0.0055
62 | HMWTPLVVAVLIGGTHRFGELRAAVGGITPKVLTETLRSMERDGLVVREQTPGVPPRVDYALTPLGA | -0.319
63 | HMLQFTYPRLHTKKSWYVDFMSFDPGAGKMRRKKFMLDGIPKITDRRKRAAELIEVLTKQLRAGWSPWVNV | -3.59
64 | HMTLGQHIQALRKEAGYSQEALGEALGVTRQSISKWESDQAIPEVDKLVTLSRLFQVPVGVLLQVEQP | -0.16
65 | HMSHSDMEEWTDAVRSRRKKLGLTQVQIARRLGVTSHHFSQIESGRTIPSASLQIEIDRLLKNWND | -0.963
66 | HMSSIYVYPNPTANRIYIQADNIKKAELFDLMGRKVRSTNQPQIDISRLSRGNYILQVKTQNNTQSFKIIK | -0.476
67 | HMKSEIRKKNSQIILDAAEHEFSVHGYRGTSVQMIADRSGLPKANLHYYYKSKSALYGAVLDRIL | 0.202
68 | HMSVSTGTITGSVVNLREEPNTSSKVLDKLPKDTVVYVLSASGEWYNVSYGDKTGWVYGEYLA | -0.163
69 | HMYNSYALTARELELVNYVLKGNSRREMAEDSGLKENTVASYMKRLYRKIKVHSRKELKELFM | -0.0805
70 | HMGTDIGADKAAQTALADAGLSSSQVTGLRTKQDWDDGQLRYEVEFRAGGVEYDYELAADGTILKADRDT | 0.247
71 | HMGFPAPFDGKAVAELRRRLGLTRRGLAEELSVSPSTVDKWEQGDVALRSPALTILKILWHQGLKALPP | -1.52
72 | HMSKQDRRIRRTRRLLKESLIQLMQEKEFMNISVREVTERADLNRGTFYLHYQDTRHLLQDIENETL | -3.25
73 | HMLTGADAEKATAAAQAEFPGGTVLRVETDADGTYEAHVRKADGTEVEVKMDKDFKVTSVEE | 0.0905
74 | HMTDTIALRSVIAESGLKYKALAEIMGLSPYTLQMKIDNESEFKASEIDALANALGMDMQQRDSIFF | -0.701
75 | HMNMGEKIRSLIGQFGVTSEDLKNLSVANLLIRMNQEAGDSKTKGILASLLETVNKAGVGNLTPDALGIK | -0.00161
